The source of these data is patent US20150160214A1, “Quantitation of Cellular Adhesion Dynamics Across Immobilized Receptors Under Rheological Shear Flow” (Mayo Foundation for Medical Education and Research, priority 2013, published 2015).

Series [1] in a line: Conformational and thermodynamic classification of A1 domain variants (urea and thermal denaturation, CD, FL, ANS). It counts as physicochemical. The following applies: for Thermodynamic stability: urea and thermal denaturation. The protocol:
Circular dichroism measurements were performed on a Model No. 420C circular-dichroism spectrometer (Aviv Biomedical, Inc., Lakewood Township, N.J.). All fluorescence (FL) measurements were performed on a Fluorolog3 spectrofluorometer (HORIBA Jobin-Yvon, Edison, N.J.) equipped with a Model No. LF1-3751 temperature controller (Wavelength Electronics Inc., Bozeman, Mont.). Near- and far-ultraviolet (UV) circular dichroism (CD), intrinsic protein FL, and ANS (8-anilino naphthalene sulfonic acid) […] spectra were determined as described in Tischer et al. (19). Urea denaturation (monitored by far-UV CD) and thermal denaturation (monitored by far-UV CD, intrinsic protein FL, and ANS FL) were performed and analyzed as previously described (19,20). Acrylamide quenching of intrinsic tryptophan fluorescence was performed and analyzed as described in Tischer et al. (19). All spectra were collected at 20° C.
The effects of mutations on the thermodynamic stability of A1 (18) was determined and a framework that incorporated partial unfolding as a means for enhancing the binding affinity of A1 for GPIba was developed (17). Initially, urea-temperature phase diagram method were used for assessing the reversible thermodynamics of unfolding at various temperatures (18,21), and more recently thermal denaturations were used to assess kinetic irreversibility (20,22). The inventor employed these methods using a variety of spectroscopic observables that assess the conformation of these A1 domain variants as a function of temperature and urea.
The observables included the following: (1) Far-UV CD to assess secondary structure content; (2) Near-UV CD to assess tertiary structure content; (3) Intrinsic protein FL to assess solvent exposure of tyrosine and tryptophan residues; (4) Acrylamide quenching of tryptophan FL to assess local solvent exposure of the single tryptophan residue; and (5) Binding of the molten globule indicator-dye, ANS, to assess exposure of hydrophobic surface area.
In total, these studies have provided metrics that are able to classify the conformation of A1 into three types, based on biophysical spectroscopy, as follows:
The type 2B mutations R1306Q and I1309V and the type 2M mutation G1324S have previously been characterized in this conformational class (18). In addition, R1308L and I1372S also belong to this class.
The type 2M mutation A1437T and the type 2B mutation R1341Q belong to this class.
The type 2M mutations F1369I, E1359K, I1425F, S1285F, and R1374H, and the type 2B mutations H1268D, P1337L, V1316M, and V1314D, belong to this class.

The target in a further series is T1, platelet GPIbα (Homo sapiens, UniProt P07359).
T1 construct: endogenous in cells; host or cells: platelets in citrated whole blood of normal healthy volunteer donors
As to the kind of experiment: Platelet pause times on surface-captured A1 domain variants, parallel plate flow chamber (Table 4, Example 3). It counts as cell-based. Details: key to Pause Time 1500 s^−1 (s): NB = “No Binding.”. Particulars: for Pause Time 1500 s^−1 (s): shear rate 1500 s^−1, mean ± std. dev., number of measurements in parentheses, NB = No Binding; for Platelet binding to surface-captured A1 domain variant: any shear rate. Here is the method: The determination and analysis of platelet pause times and instantaneous translocation velocities over surface captured A1 and RCAM A1 was performed as previously described (Tischer:2013). Here, the inventor used the Cellix Mims Evo syringe pump controlled by VenaFluxAssay (www.cellixltd.com). Vena8™ CGS biochips were custom designed with 800 μm width by 80 μm height microchannels bonded to glass slides with a Cu^2+ chelated PEG surface serviced by Microsurfaces Inc. (www.proteinslides.com/histag.html) to which the A1 and RCAM A1 in TBS were captured by the 6×His-Tag at a total concentration of 5 μM. Citrated whole blood was obtained from the informed consent of healthy volunteer donors with approval from the Mayo Clinic Institutional Review Board and 100 μL was perfused over the surface captured A1 domains at 700 s^−1. The shear was increased or decreased in a stepwise manner to measure the dynamics of platelet adhesion at high and low shear. After allowing the flow chamber to equilibrate for 50 s at each shear rate, 1 min movies were recorded at 24 frames per second in phase contrast at 200× magnification with 2×2 pixel binning on a Zeiss AxioCam Mrm camera (6.45 μm/px) attached to a Zeiss Axio Observer.D1 inverted microscope. Tracking analysis was performed using MediaCybernetics ImagePro® Premier (www.mediacy.com/index.aspx?page=IP\_Premier) The distance travelled in the direction of flow was calculated from the coordinate data for each platelet as a function of time using √{square root over ((xt−x0)^2)}, where x0 is the coordinates of a platelet on the first frame of the movie and xt is the coordinate on subsequent frames of the movie. These trajectories were differentiated into instantaneous velocities using a Savitzky-Golay algorithm (Savitzky:1964) with a five data point window size and a second order polynomial implemented into a Mathematica (www.wolfram.com/mathematica) notebook written in our lab. Trajectories were retained for statistical analysis if the platelet was present for ≧1 s and travelled a total distance greater than 1 Distance travelled in pixels (px) was converted to (μm) using 6.45 μm/px*2/200=0.0645 μm/px. Pause times were determined by the amount of time (sec) a platelets velocity was 0±4 px/s≅0±0.23 μm/s, within the noise. Data are reported as mean velocities and pause times attained by individual platelets averaged over all platelets analyzed. Integral analysis of the cumulative pause time histogram gives the survival fraction, equation (24).
The rheological interaction of platelets with A1 domain variants harboring type 2M and type 2B mutations was studied using recently developed flow-chamber methods (19). The A1 domains ([…]) were immobilized on Vena8™ biochips (Cellix, Dublin, Ireland) coated with a Cu^2+-chelated poly-ethylene-glycol surface serviced by MicroSurfaces, Inc. (Englewood, N.J.) via the 6×His-Tag, enabling the preservation of the structural properties of the domain in solution and its concomitant effects on platelet adhesion under rheological shear flow. One-hundred microliters of citrated whole blood, obtained from the informed consent of normal healthy volunteer donors with approval from the Mayo Clinic Institutional Review Board (Rochester, Minn.), was perfused at a shear rate of 800 s^−1 followed by Tris-buffered saline. Platelets translocating on the surface-captured domains were filmed at 24 frames/s for 1 min at logarithmic intervals of the shear rate. Coordinates obtained from tracking analysis of the resulting movies were processed using the inventor recently developed statistical analytics for the quantification of cellular adhesion dynamics across immobilized receptors under rheological shear flow (supra). Biochips lacking the surface-captured A1 domain were completely inert to platelets.

In the case of “H1268D: vWF A1 domain variant with type 2B vWD mutation H1268D”, the “Conformational class (in words)” value in series [1] is listed as “significantly reduced tertiary structure content”.

As to “G1324S: vWF A1 domain variant with type 2M vWD mutation G1324S”, in series [1], the “A1 domain Conformation” value is reported as “N (N = “Native” (native structure with varying thermodynamic stability))” and the “Conformational class (in words)” value is “global native fold”. Moreover, the “Pause Time 1500 s^−1 (s)” value with platelet GPIbα is given as “NB (3)”.

In the case of “R1374H: vWF A1 domain variant with type 2M vWD mutation R1374H”, in series [1], the “Conformational class (in words)” value was “significantly reduced tertiary structure content”. For the same substance, in the series with platelet GPIbα, the “Platelet binding to surface-captured A1 domain variant” value (“Platelet binding” below) is listed as “did not bind platelets at any shear rate” and the “Pause Time 1500 s^−1 (s)” value is given as “NB (2)”.

As for “I1309V: vWF A1 domain variant with type 2B vWD mutation I1309V”, in series [1], the “A1 domain Conformation” value is on record as “N (N = “Native” (native structure with varying thermodynamic stability))” and the “Conformational class (in words)” value was “global native fold”.

In the case of “S1285F: vWF A1 domain variant with type 2M vWD mutation S1285F”, the “Conformational class (in words)” value in series [1] is reported as “significantly reduced tertiary structure content”. In the series with platelet GPIbα, the “Platelet binding” value is on record as “did not bind platelets at any shear rate” and the “Pause Time 1500 s^−1 (s)” value was “NB (2)”.

As to “R1341Q: vWF A1 domain variant with type 2B vWD mutation R1341Q”, in series [1], the “Conformational class (in words)” value is reported as “reduced secondary structure content” and the Thermodynamic stability entry is given as “low stability”.

On to “P1337L: vWF A1 domain variant with type 2B vWD mutation P1337L”, for which the “Conformational class (in words)” value in series [1] was “significantly reduced tertiary structure content”. Also, in the series with platelet GPIbα, the “Platelet adhesion function (gain or loss of function)” value is listed as “extreme type 2B gain-of-function”.

Take “V1316M: vWF A1 domain variant with type 2B vWD mutation V1316M”: the “Conformational class (in words)” value in series [1] is “significantly reduced tertiary structure content”.

As for “A1437T: vWF A1 domain variant with type 2M vWD mutation A1437T”, in series [1], the “Conformational class (in words)” value was “reduced secondary structure content” and the Thermodynamic stability entry is “low stability”. The “Platelet adhesion function (gain or loss of function)” value in the series with platelet GPIbα is given as “mild loss-of-function”.

On to “R1306Q: vWF A1 domain variant with type 2B vWD mutation R1306Q”, for which, in series [1], the “A1 domain Conformation” value is recorded as “N (N = “Native” (native structure with varying thermodynamic stability))” and the “Conformational class (in words)” value is “global native fold”.

Consider “I1372S: vWF A1 domain variant with type 2B vWD mutation I1372S”, for which, in series [1], the “A1 domain Conformation” value is “N (N = “Native” (native structure with varying thermodynamic stability))” and the “Conformational class (in words)” value was “global native fold”.

Regarding “I1425F: vWF A1 domain variant with type 2M vWD mutation I1425F”, the “Conformational class (in words)” value in series [1] is recorded as “significantly reduced tertiary structure content”. Besides, in the series with platelet GPIbα, the “Platelet binding” value is “did not bind platelets at any shear rate” and the “Pause Time 1500 s^−1 (s)” value is given as “NB (2)”.

Turning to “F1369I: vWF A1 domain variant with type 2M vWD mutation F1369I”, the “Conformational class (in words)” value in series [1] is reported as “significantly reduced tertiary structure content”. Moreover, in the series with platelet GPIbα, the “Platelet adhesion function (gain or loss of function)” value is “complete loss-of-function”, the “Platelet binding” value is on record as “did not bind platelets at any shear rate” and the “Pause Time 1500 s^−1 (s)” value was “NB (2)”.

Take “H1308L: vWF A1 domain variant with type 2B vWD mutation, printed H1308L in Table 4, R1308L elsewhere”: in series [1], the “A1 domain Conformation” value is reported as “N (N = “Native” (native structure with varying thermodynamic stability))” and the “Conformational class (in words)” value is “global native fold”.

As to “V1314D: vWF A1 domain variant with type 2B vWD mutation V1314D”, the “Conformational class (in words)” value in series [1] is “significantly reduced tertiary structure content”.

For “E1359K: vWF A1 domain variant with type 2M vWD mutation E1359K”, the “Conformational class (in words)” value in series [1] was “significantly reduced tertiary structure content”. In the series with platelet GPIbα, the “Platelet adhesion function (gain or loss of function)” value was “complete loss-of-function”, the “Platelet binding” value was “did not bind platelets at any shear rate” and the “Pause Time 1500 s^−1 (s)” value is listed as “NB (2)”.
